Measurements from patent US20260108496A1, “METHODS FOR REPROGRAMING EXHAUSTED T CELLS AND BOOSTING IMMUNE CHECKPOINT BLOCKADE THERAPY FOR CANCER” (Ohio State Innovation Foundation, priority 2022, published 2026).

Tests used:
human CD8+ T cells [1] = experiment: chronic TCR stimulation of human CBMCs in the presence of TGFβ1; type: cell-based
Protocol: For “Weak TCR” stimulation, 30 ng/ml of purified monoclonal anti-human CD3 (clone: OKT3; BioLegend) was continuously added onto the seeded CBMCs to provide TCR stimulation plus natural costimulation via CD80/CD86 on Fc-expressing CBMCs that survive in the first few days. For “Strong TCR” stimulation setting, flat-bottom plates were coated with purified monoclonal anti-human CD3 (5 ug/ml) and anti-human CD28 (1 ug/ml) (clone: CD28.2; BioLegend) at 4° C. overnight, then CMBCs were isolated and seeded in complete T cell medium as described above on day 0. On day 7, viable CD8+ T cells were FACS-purified using the Sony MA900 cell sorter. Purified CD8+ T cells were then continuously stimulated in plates coated with anti-CD3 only (5 ug/ml). Media was replenished every 2-3 days, and cells were incubated at 37 C and 5% CO2 throughout the duration of the experiment. Human TGFβ1 (5 ng/ml, Peprotech) was added to the media starting on day 7. Treatment with RepSox (25 μM) and SB4 (10 μM) (MedChemExpress LLC) or vehicle control (DMSO, ThermoFisher) were added to the media starting on day 14 or 21. Vitamin C (100 μM, MedChemExpress LLC) was added to the media starting on day 21. For the acute TCR stimulation condition, anti-CD3 was no longer added to the media starting on day 7. […]

P14 CD8 T cells = experiment: in-vitro co-culture of P14 CD8 T cells with CT2A-gp33 tumor cells (Example 1); type: cell-based, mouse; conditions: P14 cells
From the text: To study their epigenetic (re)programming, we developed a novel in-vitro model of CD8 T cell exhaustion. First, we optimized conditions for in-vitro co-culture of gp33-expressing murine brain tumor cells (CT2A-gp33) and TCR transgenic gp33-specific CD8 T cells (P14 cells). We were able to enforce differentiation of anti-tumor CD8 T cells under their persistent TCR stimulation by repeated exposure to the tumor antigen and tumor-derived factors, such as TGFβ1. […] However, with prolonged exposure to the tumor antigen, the effector CD8 T cells progressively lose cytokine production and tumor killing activity (FIGS. 8A, 8B, and 8C).
To assess the impact of TGFβ1 signaling on the progression of CD8 T cells toward dysfunction, we treated co-cultures with TGFβ1 or RepSox (also known as E-616452) (2-(3-(6-Methylpyridine-2-yl)-1H-pyrazol-4-yl)-1,5-naphthyridine) as shown in the formula: […]
RepSox is a potent selective inhibitor of the TGFβ type 1 receptor (ALK5)—for 11 days after effector differentiation was complete (day 6).
We also examined the impact of BMP-2/4 signaling on RepSox-treated P14 CD8 T cells. […] Taken together, our findings indicate that TGFβ1-signaling not only accelerates the development of T cell dysfunction, but also maintains silencing of lymphoid homing markers on CD8 T cells. Importantly, our findings support the feasibility of using this novel in-vitro model as a tractable tool that can guide our in-vivo work by providing first-line mechanistic studies.

adult CD8+ T cells = experiment: chronic TCR plus TGFβ1 stimulation of adult CD8+ T cells from healthy blood donors; type: cell-based, human
Protocol: Isolated adult PBMCs were stained on day 0 for cell sorting of naïve CD8+ T cells (viable CD3+ CD8+ CCR7+ CD45RO−) and viable CD3− PBMCs using the Sony MA900 sorter. The cells were seeded into 96-well U-bottom plate (˜5,000 naïve T cells+45,000 CD3− cells per well) on day 0 with 30 ng/ml of purified anti-human CD3, in complete T cell medium as described above. On day 4, the wells were transferred to a 96-well flat-bottom plate coated with anti-human CD3 and CD28 antibodies as described above, and stimulation was continued for an additional three days. On day 7, the cells were returned to culture with continuous stimulation using soluble anti-CD3 (30 ng/ml) or repeated plate-bound anti-CD3 stimulation through day 28. Media was replenished every 2-3 days. Treatments were added to the media as described above for CBMCs experiments.

human CD8+ T cells [2] = experiment: whole-genome bisulfite sequencing of human CD8+ T cells; type: cell-based; conditions: combined with RepSox
Protocol: Human CD8+ T cells were sorted on days 0 (naïve), 7, and 28, and genomic DNA was extracted and bisulfite-treated to convert unmethylated cytosine to uracil residues using the EZ DNA Methylation-Direct Kit (Zymo). DNA libraries were prepared using Swift Accel-NGS® D Methyl-Seq DNA Library Kit according to the manufacturer's protocol. The libraries were purified by the AMPureXP Beads followed by QC using Qubit method, and the purified DNA was captured on an Illumina flow cell for cluster generation. Libraries were sequenced on the NovaSeq-S2 platform following the manufacturer's protocols. Sequencing data were aligned to the Hg38 genome using BSMAP. Adapter were trimmed from FASTQ sequences (trimglore) and mapped to the hg38 genome using the BSMAP v. 2.74 software. CpGs were extracted by the methratio.py in the BSMAP package. Differential analysis of CpG methylation among the datasets was determined with a Bayesian hierarchical model to detect regional methylation differences with at least three CpG site. Differentially methylated regions (DMRs) were identified using Bioconductor package DSS and custom R scripts with a threshold of 30% change in methylation ratio and P-value <0.01 with at least 10 reads per CpG site as a cutoff.

Dysf. CD8+ T cells = experiment: reprogramming treatment of Dysf. (chronic TCR plus TGFβ1) human CD8+ T cells; type: cell-based; conditions: sorted most dysfunctional subset, added to RepSox
Protocol: On day 7, viable CD8+ T cells were FACS-purified using the Sony MA900 cell sorter. Purified CD8+ T cells were then continuously stimulated in plates coated with anti-CD3 only (5 ug/ml). Media was replenished every 2-3 days, and cells were incubated at 37 C and 5% CO2 throughout the duration of the experiment. Human TGFβ1 (5 ng/ml, Peprotech) was added to the media starting on day 7. Treatment with RepSox (25 μM) and SB4 (10 μM) (MedChemExpress LLC) or vehicle control (DMSO, ThermoFisher) were added to the media starting on day 14 or 21. Vitamin C (100 μM, MedChemExpress LLC) was added to the media starting on day 21. For the acute TCR stimulation condition, anti-CD3 was no longer added to the media starting on day 7. For recovery experiments in FIG. 16 and FIGS. 22 and 26, CD8+ T cells were rested from TCR stimulation and TGFβ1 starting on day 28 for 7-14 days in T cell media containing recombinant human IL-15 only (10 ng/ml).
On days 7, 14, 21, and 28 (and day 35 and 42 for recovery experiments), human CBMCs were stimulated with PMA/Ionomycin (Cell Stimulation Cocktail plus protein transport inhibitors, eBioscience) for 3 hours at 37° C., 5% CO2. Incubation was followed immediately by antibody intracellular staining for flow cytometry.
Human CBMCs from ex vivo stimulation experiments (acute or chronic TCR, and chronic TCR+TGFβ1) were labeled with 5(6)-Carboxyfluorescein diacetate N-succinimidyl ester (CFSE) (1 μM, Sigma) by staining in PBS for 7 minutes at room temperature, followed by quenching with 20% FBS. Proliferation was tracked on days 35 and 42 by assessing CFSE fluorescence via flow cytometry. Each peak of CFSE fluorescence signal represents one cell division cycle.

[3] = tested on: SMAD1/5/8 phosphorylation; conditions: cited from earlier work
human CD8 T cells = experiment: treatment of human CD8 T cells with BMP ligands under chronic strong TCR stimulation; type: cell-based; conditions: for expression levels of terminal exhaustion-associated molecules (CD39, CD101, CD103): day 21; for frequencies of IFNγ-producing CD8 T cells: days 14 and 21
From the text: BMP ligands can signal through type 1 (BMPR1, ACVR1) or type 2 receptors (BMPR2, ACVR2), which typically form heterotetramers upon ligand binding. Once heterotetramers are activated by ligands, they phosphorylate SMAD1/5/8 that binds to SMAD4 and translocates to nucleus and bind to target genes.

[4] = adult naïve CD8+ T cells, post-effector exposure

Molecule: TGFβ1: Human TGFβ1 cytokine (5 ng/ml, Peprotech)
- effector functions in chronically stimulated T cells (human CD8+ T cells [1]; TGFβ1 started after effector differentiation (day 7-28)): significantly reduced
- survival of chronically stimulated CD8+ T cells (human CD8+ T cells [1]; strong TCR stimulation): supported the survival
- production of IFNγ and TNFα (P14 CD8 T cells; persistent treatment for 11 days from day 6 of co-culture): accelerated the impairment
- expression of T-bet and Granzyme B (P14 CD8 T cells; persistent treatment from day 6): repressed expression
- expression of dysfunction-associated markers (adult CD8+ T cells; [4]): increased expression
- function of chronically stimulated adult CD8+ T cells (adult CD8+ T cells; [4]): induced functional impairment
- polyfunctionality (adult CD8+ T cells; adult polyclonal effector memory (CD45RO+ CCR7−) CD8+ T cells): did not impact
- CD103 expression (adult CD8+ T cells; adult polyclonal effector memory CD8+ T cells): significant upregulation

Molecule: O=C1O[C@H]([C@@H](O)CO)C(O)=C1O [vitamin C]
- DNA methylation patterns in Dysf. CD8+ T cells (human CD8+ T cells [2]): more pronounced
- effector cytokine production (Dysf. CD8+ T cells): further enhanced

B1: BMP4: natural BMP ligand, bone morphogenic protein 4 (protein, UniProt P12644 293-408, looked up)
Bone morphogenetic protein 4: SPKHHSQRARKKNKNCRRHSLYVDFSDVGWNDWIVAPPGYQAFYCHGDCPFPLADHLNSTNHAIVQTLVNSVNSSIPKACCVPTELSAISMLYLDEYDKVVLKNYQEMVVEGCGCR
modifications: Bone morphogenetic protein 4
- activation of SMAD1/5/8 phosphorylation [3]: strong
- numbers of chronically stimulated human CD8 T cells (human CD8 T cells; chronic strong TCR stimulation): preserved significantly higher numbers
- expression levels of terminal exhaustion-associated molecules (CD39, CD101, CD103) (human CD8 T cells): downregulated
- frequencies of IFNγ-producing CD8 T cells (human CD8 T cells): significantly higher frequencies

B2: BMP6: natural BMP ligand (protein, UniProt P22004 375-513, looked up)
Bone morphogenetic protein 6: SASSRRRQQSRNRSTQSQDVARVSSASDYNSSELKTACRKHELYVSFQDLGWQDWIIAPKGYAANYCDGECSFPLNAHMNATNHAIVQTLVHLMNPEYVPKPCCAPTKLNAISVLYFDDNSNVILKKYRNMVVRACGCH
modifications: Bone morphogenetic protein 6
notes: natural BMP ligand
- activation of SMAD1/5/8 phosphorylation [3]: strong
- expression levels of terminal exhaustion-associated molecules (CD39, CD101, CD103) (human CD8 T cells): downregulated

B3: BMP12: BMP ligand (protein, UniProt Q7Z4P5 322-450, looked up)
Growth/differentiation factor …: TALAGTRTAQGSGGGAGRGHGRRGRSRCSRKPLHVDFKELGWDDWIIAPLDYEAYHCEGLCDFPLRSHLEPTNHAIIQTLLNSMAPDAAPASCCVPARLSPISILYIDAANNVVYKQYEDMVVEACGCR
- activation of SMAD1/5/8 phosphorylation [3]: medium or weak

B4: BMP14: BMP ligand (protein, UniProt P43026 382-501, looked up)
Growth/differentiation factor …: APLATRQGKRPSKNLKARCSRKALHVNFKDMGWDDWIIAPLEYEAFHCEGLCEFPLRSHLEPTNHAVIQTLMNSMDPESTPPTCCVPTRLSPISILFIDSANNVVYKQYEDMVVESCGCR
modifications: Growth/differentiation factor 5
notes: BMP ligand
- activation of SMAD1/5/8 phosphorylation [3]: medium or weak

B5: BMP10: natural BMP ligand (protein, UniProt O95393 317-424, looked up)
Bone morphogenetic protein 10: NAKGNYCKRTPLYIDFKEIGWDSWIIAPPGYEAYECRGVCNYPLAEHLTPTKHAIIQALVHLKNSQKASKACCVPTKLEPISILYLDKGVVTYKFKYEGMAVSECGCR
- activation of SMAD1/5/8 phosphorylation [3]: medium or weak
- expression levels of terminal exhaustion-associated molecules (CD39, CD101, CD103) (human CD8 T cells): downregulated
- frequencies of IFNγ-producing CD8 T cells (human CD8 T cells): significantly higher frequencies
